Here are results for one molecule from US20140105889A1 (published 2014).

The target in one experiment is T1, mouse FcRn (mouse, UniProt Q61559 22-297, limits assumed).
T1 construct: Soluble analyte in Biacore; also called mFcRn
T1 sequence (looked up) 1: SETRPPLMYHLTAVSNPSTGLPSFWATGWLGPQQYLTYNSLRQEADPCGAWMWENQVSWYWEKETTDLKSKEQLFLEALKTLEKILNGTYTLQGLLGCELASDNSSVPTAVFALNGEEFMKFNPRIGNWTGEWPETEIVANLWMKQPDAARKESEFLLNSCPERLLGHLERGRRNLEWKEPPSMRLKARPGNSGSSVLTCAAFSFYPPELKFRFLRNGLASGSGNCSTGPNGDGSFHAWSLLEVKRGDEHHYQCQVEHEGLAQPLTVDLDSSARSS
T1 sequence (looked up) 2: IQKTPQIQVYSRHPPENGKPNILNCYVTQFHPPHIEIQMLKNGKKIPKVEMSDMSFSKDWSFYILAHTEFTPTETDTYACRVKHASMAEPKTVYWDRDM
Nature of the experiment: SPR (Biacore), mouse FcRn, pH 7.0. In general terms: Surface plasmon resonance follows binding to a sensor surface in real time, without labels.

The target in another experiment is T2, mouse FcγRIV (mouse).
T2 construct: Bought soluble receptor; also called mFcgRIV; mFcgR IV
T2 sequence (A0A0B4J1G0 21-203): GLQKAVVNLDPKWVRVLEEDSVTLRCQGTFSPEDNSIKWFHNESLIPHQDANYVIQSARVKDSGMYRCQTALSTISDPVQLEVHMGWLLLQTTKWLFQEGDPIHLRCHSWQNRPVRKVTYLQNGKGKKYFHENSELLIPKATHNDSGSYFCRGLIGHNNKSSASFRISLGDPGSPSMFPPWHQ
Nature of the experiment: SPR (Biacore), antibody captured on Protein L, mouse FcγR as analyte, pH 7.4, 25 C.

Procedure for mouse FcRn: The binding between antibody and mouse FcRn was kinetically analyzed using Biacore T100 (GE Healthcare). An appropriate amount of protein L (ACTIGEN) was immobilized onto Sensor chip CM4 (GE Healthcare) by the amino coupling method, and the chip was allowed to capture an antibody of interest. Then, diluted FcRn solutions and running buffer (as a reference solution) were injected to allow mouse FcRn to interact with the antibody captured on the sensor chip. The running buffer used contains 50 mmol/l sodium phosphate, 150 mmol/l NaCl, and 0.05% (w/v) Tween20 (pH 7.4). FcRn was diluted using each buffer. The sensorchip was regenerated using 10 mmol/l glycine-HCl (pH 1.5). Assays were carried out exclusively at 25 degrees C. The association rate constant ka (1/Ms) and dissociation rate constant kd (1/s), both of which are kinetic parameters, were calculated based on the sensorgrams obtained in the assays, and the KD (M) of each antibody for mouse FcRn was determined from these values. Each parameter was calculated using Biacore T100 Evaluation Software (GE Healthcare).
Procedure for mouse FcγRIV: Binding activity between the antibodies and mouse FcγRI, FcγRII, FcγRIII and FcγRIV (R&D Systems, Sin θ Biological) (hereinafter referred to as mouse FcγRs) was evaluated using the Biacore T100 or T200 (GE Healthcare). The antibodies being tested were captured by Protein L (ACTIGEN) that was immobilized in suitable amounts on the CM4 Sensor Chip (GE Healthcare) by amine coupling. Next, the diluted mouse FcγRs and a running buffer used as a blank were injected to allow interaction with the antibody captured on the sensor chip. A buffer consisting of 20 mmol/L ACES, 150 mmol/L NaCl and 0.05% (w/v) Tween 20 (pH 7.4) was used for the running buffer, and this buffer was also used to dilute the mouse FcγRs. 10 mmol/L glycine-HCl (pH 1.5) was used to regenerate the sensor chip. All measurements were carried out at 25° C.

B1: antibody with mPM1H-mIgG1 heavy chain and L(WT)-CK light chain (antibody)
heavy: DVQLQESGPVLVKPSQSLSLTCTVTGYSITSDHAWSWIRQFPGNKLEWMGYISYSGITTYNPSLKSRISITRDTSKNQFFLQLNSVTTGDTSTYYCARSLARTTAMDYWGQGTSVTVSSAKTTPPSVYPLAPGSAAQTNSMVTLGCLVKGYFPEPVTVTWNSGSLSSGVHTFPAVLQSDLYTLSSSVTVPSSTWPSETVTCNVAHPASSTKVDKKIVPRDCGCKPCICTVPEVSSVFIFPPKPKDVLTITLTPKVTCVVVDISKDDPEVQFSWFVDDVEVHTAQTQPREEQFNSTFRSVSELPIMHQDWLNGKEFKCRVNSAAFPAPIEKTISKTKGRPKAPQVYTIPPPKEQMAKDKVSLTCMITDFFPEDITVEWQWNGQPAENYKNTQPIMDTDGSYFVYSKLNVQKSNWEAGNTFTCSVLHEGLHNHHTEKSLSHSPGK
light: not shown
notes: Natural mouse IgG1 constant region; In the Biacore assays the heavy chain was paired with L(WT)-CK; also called mPM1-mIgG1; copies: 2 + 2
With B1, the binding result with mouse FcRn is “no binding”. For the same molecule, the “BINDING AMOUNT (RU)” value in the experiment with mouse FcγRIV is -3.5 RU.
